# Source: paper PMC11534217, “Direct activation of HSF1 by macromolecular crowding and misfolded proteins”
# T1: Heat shock factor protein 1 (HSF1), purified recombinant (human), Q00613
# T1 chain: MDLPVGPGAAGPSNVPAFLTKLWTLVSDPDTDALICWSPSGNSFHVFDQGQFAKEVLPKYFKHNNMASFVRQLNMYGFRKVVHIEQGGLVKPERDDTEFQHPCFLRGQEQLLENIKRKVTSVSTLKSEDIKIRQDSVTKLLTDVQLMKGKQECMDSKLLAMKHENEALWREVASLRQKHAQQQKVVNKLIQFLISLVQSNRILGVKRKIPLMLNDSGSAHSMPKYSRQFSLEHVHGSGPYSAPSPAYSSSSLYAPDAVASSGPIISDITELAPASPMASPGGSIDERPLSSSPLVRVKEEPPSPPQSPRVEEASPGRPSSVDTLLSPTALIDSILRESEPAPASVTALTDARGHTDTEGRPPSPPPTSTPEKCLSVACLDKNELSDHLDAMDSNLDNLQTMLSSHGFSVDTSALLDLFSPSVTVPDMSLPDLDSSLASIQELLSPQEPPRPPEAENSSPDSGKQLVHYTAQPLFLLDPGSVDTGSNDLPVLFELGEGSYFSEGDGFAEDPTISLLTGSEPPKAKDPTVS
# T2: GFP-HSF1 (human), Q00613
# T2 chain: T1 chain
# T3: mCherry-HSF1 (human), Q00613
# T3 chain: T1 chain
# T4: HSF1, endogenous in H1299 cells (human (endogenous in H1299)), Q00613
# T4 chain: T1 chain
# B1: FAM-HSE (dsDNA)
# DNA 1: CCCCTTCCCGAATATTCCCCC
# DNA 2: GGGGGAATATTCGGGAAGGGG
# B2: Heat shock factor protein 1 (HSF1), purified recombinant, Q00613-1 1-529 (natural protein)
# chain: T1 chain
# B3: GFP-HSF1, Q00613 1-529 (natural protein)
# chain: T1 chain
# B4: mCherry-HSF1, Q00613-1 1-529 (natural protein)
# chain: T1 chain
# B5: HSF1, endogenous in H1299 cells, Q00613 1-529 (natural protein)
# chain: T1 chain
# Key:
# [1] = molecular target: HSF1 monomer (SEC-purified) (human (Homo sapiens), UniProt Q00613 1-529); assay: fluorescence polarization; after heat shock (+HS); binding enhanced; FP: 30 nM DNA, 150 mM NaCl, 50 mM HEPES pH 7.2, 1 mM DTT, 0.05% Tween-20, 25 C; EMSA: 200 nM HSF1, 100 nM DNA, 25 mM HEPES pH 7.4, 150 mM NaCl, 10% glycerol, 3; settings: protein: recombinant; tags: N-terminal His6-TEV, cleaved by TEV before assay; chain copies: 3; label: 5' FAM on printed strand; described as double-stranded
# [2] = molecular target: T1, Heat shock factor protein 1 (HSF1), …; assay: native gel or EMSA; Blue native PAGE and western blot of purified HSF1 monomer (5 μM) after mild heat (38°C, 0-600 s; or 37°C, 5 min) with or without BSA as crowder (1-50 mg/ml); settings: remark: other sources report otherwise
# [3] = molecular target: T1, Heat shock factor protein 1 (HSF1), …; assay: SEC + native gel or EMSA; trimer fraction of purified HSF1 from the same SEC, then Blue native PAGE and western blot; settings: remark: other sources report otherwise
# GFP-HSF1 (human), Q00613 = molecular target: T2, GFP-HSF1 (human), Q00613; assay: native gel or EMSA; high resolution clear native electrophoresis (HR CNE) of lysates of H1299 cells with fluorescent HSF1 fusion, fluorescence scan; cells treated with sorbitol, 42°C heat shock, bortezomib or AUY-922; settings: remark: other sources report otherwise
# [4] = molecular target: T3, mCherry-HSF1 (human), Q00613; assay: as above; settings: remark: other sources report otherwise
# [5] = molecular target: T4, HSF1, endogenous in H1299 cells (human …); assay: cross-linking; 2 mM DSBU added to the lysate of H1299 cells for 30 minutes, SDS-PAGE, blot with anti-HSF1 c-5; cells treated with AUY-922 (0-200 nM, 2 h) after mTOR inhibitors BEZ-235 or rapamycin (100 nM, 8 h); settings: remark: other sources report otherwise
binder,measurement,setting,value
B1,binding result,[1],binds
B2,stoichiometry N,[2],3
same,stoichiometry N,[3],3
B3,stoichiometry N,"GFP-HSF1 (human), Q00613",3
B4,stoichiometry N,[4],3
B5,stoichiometry N,[5],3
